T1: EB1 (UniProt Q15691 2-268)
T1 construct: Endogenous protein detected by immunoblot or mass spectrometry; also called endogenous EB1
T1 sequence (looked up): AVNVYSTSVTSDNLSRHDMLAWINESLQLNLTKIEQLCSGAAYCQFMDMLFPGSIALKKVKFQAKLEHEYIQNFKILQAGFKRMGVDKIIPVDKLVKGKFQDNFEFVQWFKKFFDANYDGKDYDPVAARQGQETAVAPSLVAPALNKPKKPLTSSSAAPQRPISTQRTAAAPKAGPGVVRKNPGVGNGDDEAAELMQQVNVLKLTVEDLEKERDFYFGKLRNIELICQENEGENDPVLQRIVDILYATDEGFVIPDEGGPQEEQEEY

B1: FLAG-tagged MMG8 fragment 1-389 (L311A/P312A) (other)
chain: MKEICRICARELCGNQRRWIFHTASKLNLQVLLSHVLGKDVPRDGKAEFACSKCAFMLDRIYRFDTVIARIEALSIERLQKLLLEKDRLKFCIASMYRKNNDDSGAEIKAGNGTVDMSVLPDARYSALLQEDFAYSGFECWVENEDQIQEPHSCHGSEGPGNRPRRCRGCAALRVADSDYEAICKVPRKVARSISCGPSSRWSTSICTEEPALSEVGPPDLASTKVPPDGESMEEETPGSSVESLDASVQASPPQQKDEETERSAKELGKCDCCSDDQAPQHGCNHKLELALSMIKGLDYKPIQSPRGSRAAIPVKSSLPGAKPGPSMTDGVSSGFLNRSLKPLYKTPVSYPLELSDLQELWDDLCEDYLPLRVQPMTEELLKQQKLNS
notes: not shown: FLAG tag
B2: FLAG-tagged full-length MMG8(L311A/P312A) (other)
chain: MKEICRICARELCGNQRRWIFHTASKLNLQVLLSHVLGKDVPRDGKAEFACSKCAFMLDRIYRFDTVIARIEALSIERLQKLLLEKDRLKFCIASMYRKNNDDSGAEIKAGNGTVDMSVLPDARYSALLQEDFAYSGFECWVENEDQIQEPHSCHGSEGPGNRPRRCRGCAALRVADSDYEAICKVPRKVARSISCGPSSRWSTSICTEEPALSEVGPPDLASTKVPPDGESMEEETPGSSVESLDASVQASPPQQKDEETERSAKELGKCDCCSDDQAPQHGCNHKLELALSMIKGLDYKPIQSPRGSRAAIPVKSSLPGAKPGPSMTDGVSSGFLNRSLKPLYKTPVSYPLELSDLQELWDDLCEDYLPLRVQPMTEELLKQQKLNSHETTITQQSVSDSHLAELQEKIQQTEATNKILQEKLNEMSYELKCAQESSQKQDGTIQNLKETLKSRERETEELYQVIEGQNDTMAKLREMLHQSQLGQLHSSEGTSPAQQQVALLDLQSALFCSQLEIQKLQRVVRQKERQLADAKQCVQFVEAAAHESEQQKEASWKHNQELRKALQQLQEELQNKSQQLRAWEAEKYNEIRTQEQNIQHLNHSLSHKEQLLQEFRELLQYRDNSDKTLEANEMLLEKLRQRIHDKAVALERAIDEKFSALEEKEKELRQLRLAVRERDHDLERLRDVLSSNEATMQSMESLLRAKGLEVEQLSTTCQNLQWLKEEMETKFSRWQKEQESIIQQLQTSLHDRNKEVEDLSATLLCKLGPGQSEIAEELCQRLQRKERMLQDLLSDRNKQVLEHEMEIQGLLQSVSTREQESQAAAEKLVQALMERNSELQALRQYLGGRDSLMSQAPISNQQAEVTPTGRLGKQTDQGSMQIPSRDDSTSLTAKEDVSIPRSTLGDLDTVAGLEKELSNAKEELELMAKKERESQMELSALQSMMAVQEEELQVQAADMESLTRNIQIKEDLIKDLQMQLVDPEDIPAMERLTQEVLLLREKVASVESQGQEISGNRRQQLLLMLEGLVDERSRLNEALQAERQLYSSLVKFHAHPESSERDRTLQVELEGAQVLRSRLEEVLGRSLERLNRLETLAAIGGGELESVRIHHKHAY
notes: also called L311A/P312A mutant; not shown: FLAG tag
B3: FLAG-tagged MMG8 fragment 390-1116 (other)
chain: HETTITQQSVSDSHLAELQEKIQQTEATNKILQEKLNEMSYELKCAQESSQKQDGTIQNLKETLKSRERETEELYQVIEGQNDTMAKLREMLHQSQLGQLHSSEGTSPAQQQVALLDLQSALFCSQLEIQKLQRVVRQKERQLADAKQCVQFVEAAAHESEQQKEASWKHNQELRKALQQLQEELQNKSQQLRAWEAEKYNEIRTQEQNIQHLNHSLSHKEQLLQEFRELLQYRDNSDKTLEANEMLLEKLRQRIHDKAVALERAIDEKFSALEEKEKELRQLRLAVRERDHDLERLRDVLSSNEATMQSMESLLRAKGLEVEQLSTTCQNLQWLKEEMETKFSRWQKEQESIIQQLQTSLHDRNKEVEDLSATLLCKLGPGQSEIAEELCQRLQRKERMLQDLLSDRNKQVLEHEMEIQGLLQSVSTREQESQAAAEKLVQALMERNSELQALRQYLGGRDSLMSQAPISNQQAEVTPTGRLGKQTDQGSMQIPSRDDSTSLTAKEDVSIPRSTLGDLDTVAGLEKELSNAKEELELMAKKERESQMELSALQSMMAVQEEELQVQAADMESLTRNIQIKEDLIKDLQMQLVDPEDIPAMERLTQEVLLLREKVASVESQGQEISGNRRQQLLLMLEGLVDERSRLNEALQAERQLYSSLVKFHAHPESSERDRTLQVELEGAQVLRSRLEEVLGRSLERLNRLETLAAIGGGELESVRIHHKHAY
notes: not shown: FLAG tag

Columns and labels:
EB1 = biological target: T1, EB1; experiment: anti-FLAG co-immunoprecipitation, immunoblot
Procedure: (§1) After anti-FLAG immunoprecipitation, the immunoprecipitates and inputs were probed on immunoblots. […] Scale bars, 5 μm.
(§2) Anti-FLAG immunoprecipitation was performed using anti-FLAG-coupled beads (M2, Sigma) in cell extracts prepared with a lysis buffer (20 mM Tris-HCl, pH7.4, 150 mM NaCl, 1 mM EDTA, 1% Triton X-100, 1 mM dithiothreitol, and the Protease Inhibitor Cocktail). Immunoprecipitated proteins were detected by immunoblotting.

GFP-EB3 = biological target: T2, GFP-EB3 (UniProt Q9UPY8 1-281); experiment: anti-FLAG co-immunoprecipitation from HEK293T, anti-GFP immunoblot
T2 construct: not shown: GFP tag
T2 sequence (Q9UPY8 whole entry): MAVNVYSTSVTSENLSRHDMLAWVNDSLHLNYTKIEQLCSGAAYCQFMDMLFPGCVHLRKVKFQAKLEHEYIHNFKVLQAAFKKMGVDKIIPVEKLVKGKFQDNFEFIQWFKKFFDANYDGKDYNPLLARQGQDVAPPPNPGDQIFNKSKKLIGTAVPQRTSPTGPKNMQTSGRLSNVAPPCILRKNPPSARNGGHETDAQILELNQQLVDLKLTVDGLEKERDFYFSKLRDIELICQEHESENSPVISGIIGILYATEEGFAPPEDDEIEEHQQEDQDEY
Procedure: as §1, §2

AKAP450 = biological target: T3, AKAP450 (UniProt Q99996 1-3907, limits assumed); experiment: anti-FLAG co-immunoprecipitation from HEK293T, immunoblot
T3 construct: Endogenous protein detected by immunoblot; also called AKAP350; CG-NAP
T3 sequence (Q99996 whole entry): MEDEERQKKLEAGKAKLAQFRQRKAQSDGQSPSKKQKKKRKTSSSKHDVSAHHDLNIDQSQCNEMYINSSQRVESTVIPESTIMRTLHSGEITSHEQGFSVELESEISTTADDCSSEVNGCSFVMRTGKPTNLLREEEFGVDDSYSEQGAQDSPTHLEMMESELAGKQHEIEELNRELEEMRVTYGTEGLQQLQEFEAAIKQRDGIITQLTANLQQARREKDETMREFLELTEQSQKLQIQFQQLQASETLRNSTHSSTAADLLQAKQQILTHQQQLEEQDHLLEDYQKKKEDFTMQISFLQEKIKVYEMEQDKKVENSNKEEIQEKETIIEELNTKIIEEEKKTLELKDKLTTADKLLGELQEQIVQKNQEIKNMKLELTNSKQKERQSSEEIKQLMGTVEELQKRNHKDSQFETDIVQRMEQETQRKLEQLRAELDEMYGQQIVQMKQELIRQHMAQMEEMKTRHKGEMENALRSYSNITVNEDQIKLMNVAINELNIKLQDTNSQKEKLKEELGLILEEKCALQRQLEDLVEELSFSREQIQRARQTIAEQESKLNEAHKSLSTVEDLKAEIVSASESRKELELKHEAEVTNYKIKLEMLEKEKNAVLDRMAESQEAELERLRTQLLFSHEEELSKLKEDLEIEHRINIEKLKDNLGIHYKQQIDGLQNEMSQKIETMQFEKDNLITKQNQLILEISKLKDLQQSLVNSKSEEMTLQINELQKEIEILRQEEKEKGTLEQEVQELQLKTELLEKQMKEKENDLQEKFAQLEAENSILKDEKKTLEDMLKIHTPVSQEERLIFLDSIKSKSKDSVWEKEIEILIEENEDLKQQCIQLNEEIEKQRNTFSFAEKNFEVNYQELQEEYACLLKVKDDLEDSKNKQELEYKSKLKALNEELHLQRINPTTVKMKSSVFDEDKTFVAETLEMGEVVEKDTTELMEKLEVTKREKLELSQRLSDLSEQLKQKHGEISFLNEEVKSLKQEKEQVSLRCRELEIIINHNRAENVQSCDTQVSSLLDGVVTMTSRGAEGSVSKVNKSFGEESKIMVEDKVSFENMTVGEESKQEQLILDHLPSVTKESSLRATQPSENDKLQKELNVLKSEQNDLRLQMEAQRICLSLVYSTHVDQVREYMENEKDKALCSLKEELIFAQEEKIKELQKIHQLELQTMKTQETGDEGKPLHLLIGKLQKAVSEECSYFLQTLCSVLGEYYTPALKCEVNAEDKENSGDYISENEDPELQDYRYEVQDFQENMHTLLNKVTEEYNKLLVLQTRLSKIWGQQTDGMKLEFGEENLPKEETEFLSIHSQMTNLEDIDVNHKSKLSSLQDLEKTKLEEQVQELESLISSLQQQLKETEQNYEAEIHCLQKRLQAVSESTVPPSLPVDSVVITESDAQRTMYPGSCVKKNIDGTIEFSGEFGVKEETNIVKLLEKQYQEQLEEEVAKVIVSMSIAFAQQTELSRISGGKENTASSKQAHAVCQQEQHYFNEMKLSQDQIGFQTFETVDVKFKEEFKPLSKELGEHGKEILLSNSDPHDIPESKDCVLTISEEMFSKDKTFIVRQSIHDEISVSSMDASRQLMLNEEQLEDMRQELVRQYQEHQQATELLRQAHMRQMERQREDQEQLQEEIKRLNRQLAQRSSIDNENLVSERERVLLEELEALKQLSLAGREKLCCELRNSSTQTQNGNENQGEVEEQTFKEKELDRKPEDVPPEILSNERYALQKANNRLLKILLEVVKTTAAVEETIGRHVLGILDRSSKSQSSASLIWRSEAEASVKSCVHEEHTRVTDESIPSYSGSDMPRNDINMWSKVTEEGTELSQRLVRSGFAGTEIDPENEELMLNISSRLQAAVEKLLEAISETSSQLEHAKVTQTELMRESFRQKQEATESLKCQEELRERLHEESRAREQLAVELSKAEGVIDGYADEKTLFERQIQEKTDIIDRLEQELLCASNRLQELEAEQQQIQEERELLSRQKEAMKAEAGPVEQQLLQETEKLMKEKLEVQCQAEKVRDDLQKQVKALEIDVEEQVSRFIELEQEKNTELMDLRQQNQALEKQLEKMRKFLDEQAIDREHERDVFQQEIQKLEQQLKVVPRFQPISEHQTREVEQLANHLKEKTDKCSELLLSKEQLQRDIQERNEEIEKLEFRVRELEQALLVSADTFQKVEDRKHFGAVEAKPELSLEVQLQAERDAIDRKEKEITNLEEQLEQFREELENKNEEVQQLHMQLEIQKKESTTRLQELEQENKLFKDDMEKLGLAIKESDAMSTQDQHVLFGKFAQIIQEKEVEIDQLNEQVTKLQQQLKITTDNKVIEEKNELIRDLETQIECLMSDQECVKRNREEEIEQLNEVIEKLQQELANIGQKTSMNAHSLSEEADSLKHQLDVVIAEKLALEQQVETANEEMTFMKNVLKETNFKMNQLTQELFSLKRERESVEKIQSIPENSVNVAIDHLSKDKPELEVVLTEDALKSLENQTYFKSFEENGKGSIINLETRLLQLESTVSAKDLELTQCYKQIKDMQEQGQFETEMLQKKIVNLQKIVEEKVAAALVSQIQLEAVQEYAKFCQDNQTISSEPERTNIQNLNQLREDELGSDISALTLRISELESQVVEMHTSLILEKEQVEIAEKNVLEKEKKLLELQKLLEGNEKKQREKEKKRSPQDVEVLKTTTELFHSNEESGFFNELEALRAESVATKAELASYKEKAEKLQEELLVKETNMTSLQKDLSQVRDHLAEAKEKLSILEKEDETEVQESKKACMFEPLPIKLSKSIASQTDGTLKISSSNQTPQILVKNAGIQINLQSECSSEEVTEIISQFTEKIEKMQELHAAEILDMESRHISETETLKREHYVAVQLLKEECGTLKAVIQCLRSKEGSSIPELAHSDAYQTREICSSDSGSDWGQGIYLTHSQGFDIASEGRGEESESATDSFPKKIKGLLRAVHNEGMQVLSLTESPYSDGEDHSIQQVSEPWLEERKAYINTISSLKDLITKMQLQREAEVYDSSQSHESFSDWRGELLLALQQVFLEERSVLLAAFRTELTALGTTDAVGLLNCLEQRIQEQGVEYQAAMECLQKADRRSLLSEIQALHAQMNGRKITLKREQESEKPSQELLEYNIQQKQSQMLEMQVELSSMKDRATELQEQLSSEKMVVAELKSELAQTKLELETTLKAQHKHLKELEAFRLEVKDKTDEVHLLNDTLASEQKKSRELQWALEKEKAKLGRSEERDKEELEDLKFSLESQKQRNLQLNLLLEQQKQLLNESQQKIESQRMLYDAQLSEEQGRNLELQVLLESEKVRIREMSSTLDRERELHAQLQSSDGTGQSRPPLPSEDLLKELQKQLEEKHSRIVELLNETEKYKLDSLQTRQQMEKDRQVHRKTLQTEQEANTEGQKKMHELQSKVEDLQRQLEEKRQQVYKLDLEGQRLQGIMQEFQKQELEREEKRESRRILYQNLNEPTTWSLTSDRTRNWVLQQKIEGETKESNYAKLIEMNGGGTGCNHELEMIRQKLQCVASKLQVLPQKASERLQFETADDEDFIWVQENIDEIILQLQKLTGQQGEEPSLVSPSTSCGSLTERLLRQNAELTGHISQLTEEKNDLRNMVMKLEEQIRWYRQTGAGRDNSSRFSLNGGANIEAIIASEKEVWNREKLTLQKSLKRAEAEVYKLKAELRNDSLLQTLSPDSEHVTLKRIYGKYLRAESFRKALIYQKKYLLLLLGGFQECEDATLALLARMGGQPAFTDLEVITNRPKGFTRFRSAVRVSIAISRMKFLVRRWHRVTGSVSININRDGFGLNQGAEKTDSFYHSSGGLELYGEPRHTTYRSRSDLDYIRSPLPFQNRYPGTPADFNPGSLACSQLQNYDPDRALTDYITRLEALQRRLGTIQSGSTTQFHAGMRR
Procedure: The immunoprecipitated proteins and inputs were analyzed by immunoblotting and quantified. […] Data shown are means±S.D. from three independent experiments. […] The arrow indicates a transfected cell. Boxed areas are enlarged. Scale bars, 5 μm.
as §2

| Binder | binding result (EB1) | binding result (GFP-EB3) | binding result (AKAP450) |
| --- | --- | --- | --- |
| B1 | no binding | – | – |
| B2 | no binding | no binding | – |
| B3 | – | – | no binding |

Source: patent US20130230532A1 (HONG KONG UNIVERSITY OF SCIENCE AND TECHNOLOGY, published 2013)
